Substitutions are numbered along the chain they refer to.
How the values were obtained:
[1] = test system: Basal-like subtype of breast cancer (BLBC); conditions: added to docetaxel after epirubicin and cyclophosphamide (EC treatment); cited from earlier work
[2] = biological target: T1, human CAPRIN-1 protein on cell membrane surfaces of human cancer cells (human, UniProt Q14444 2-709); test: flow cytometry on cancer cells expressing CAPRIN-1
T1 construct: whole, on cells; Endogenous protein on cancer cells, stained without permeation of the cell membrane
T1 sequence (looked up): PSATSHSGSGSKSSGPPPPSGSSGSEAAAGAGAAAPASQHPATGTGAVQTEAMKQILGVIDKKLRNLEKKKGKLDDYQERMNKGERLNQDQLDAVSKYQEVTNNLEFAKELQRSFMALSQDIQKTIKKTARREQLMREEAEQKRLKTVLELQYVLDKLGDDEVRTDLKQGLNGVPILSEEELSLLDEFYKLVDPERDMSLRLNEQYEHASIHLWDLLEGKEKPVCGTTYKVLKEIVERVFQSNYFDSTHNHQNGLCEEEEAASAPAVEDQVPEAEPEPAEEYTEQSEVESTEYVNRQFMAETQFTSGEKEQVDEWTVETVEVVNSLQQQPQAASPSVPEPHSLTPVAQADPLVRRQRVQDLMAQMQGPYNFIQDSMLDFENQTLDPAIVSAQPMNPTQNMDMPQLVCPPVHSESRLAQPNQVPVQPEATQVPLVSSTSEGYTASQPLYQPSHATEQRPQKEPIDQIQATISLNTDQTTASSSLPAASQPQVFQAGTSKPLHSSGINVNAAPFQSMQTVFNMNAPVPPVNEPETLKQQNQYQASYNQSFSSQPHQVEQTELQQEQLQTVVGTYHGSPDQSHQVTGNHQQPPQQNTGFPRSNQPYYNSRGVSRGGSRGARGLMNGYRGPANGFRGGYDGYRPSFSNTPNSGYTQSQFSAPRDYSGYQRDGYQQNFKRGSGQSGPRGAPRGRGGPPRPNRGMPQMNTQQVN

[3] = biological target: T2, CAPRIN-1 on cell membrane surfaces of human cancer cells (Homo sapiens, UniProt Q14444); test: Flow cytometry reactivity with cell membrane surfaces of human cancer cells expressing CAPRIN-1; assay type: binding; conditions: human cancer cells: BT-474, HT-29, QG56, H1650, NCI-N87, HEC-1-A, 22Rv1, Panc10.5, Hep3B, SKOV3, Caki-2, U-87MG, T24, OE33, OCI-AML5, Ramos, TGBC 14TKB, HT-1080, G-361
T2 construct: endogenous in cells; host or cells: human cancer cell lines (BT-474, HT-29, QG56, H1650, NCI-N87, HEC-1-A, 22Rv1, Panc10.5, Hep3B, SKOV3, Caki-2, U-87MG, T24, OE33, OCI-AML5, Ramos, TGBC 14TKB, HT-1080, G-361)
T2 sequence (Q14444 1-709): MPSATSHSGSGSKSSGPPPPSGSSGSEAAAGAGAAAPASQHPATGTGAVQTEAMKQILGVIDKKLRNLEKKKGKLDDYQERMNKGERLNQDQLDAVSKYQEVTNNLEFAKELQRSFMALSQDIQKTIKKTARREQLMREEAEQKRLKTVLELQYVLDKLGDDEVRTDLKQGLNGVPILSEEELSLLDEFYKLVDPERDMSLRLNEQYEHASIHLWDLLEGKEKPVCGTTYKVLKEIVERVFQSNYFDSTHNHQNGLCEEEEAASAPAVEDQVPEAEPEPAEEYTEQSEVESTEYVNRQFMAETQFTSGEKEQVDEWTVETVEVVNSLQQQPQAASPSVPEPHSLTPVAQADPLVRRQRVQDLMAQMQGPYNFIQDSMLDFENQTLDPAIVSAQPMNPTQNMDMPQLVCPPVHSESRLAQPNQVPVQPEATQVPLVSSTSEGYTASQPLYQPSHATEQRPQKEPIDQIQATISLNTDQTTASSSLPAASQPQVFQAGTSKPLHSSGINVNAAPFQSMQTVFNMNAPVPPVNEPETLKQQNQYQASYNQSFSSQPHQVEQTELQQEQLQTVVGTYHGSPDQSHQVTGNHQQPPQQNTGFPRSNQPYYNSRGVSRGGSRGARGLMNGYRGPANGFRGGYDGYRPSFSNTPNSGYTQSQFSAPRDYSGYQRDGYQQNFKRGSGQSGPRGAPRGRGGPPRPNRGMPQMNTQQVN
From the text: Reactivity of each monoclonal antibody with human cancer cells confirmed to express CAPRIN-1 protein on cell membrane surfaces was further confirmed by flow cytometry.
The reactivity of the anti-CAPRIN-1 antibody with cancer cells without permeation treatment of cell membranes was examined by flow cytometry to confirm that a portion of CAPRIN-1 was expressed on cell membrane surfaces of cancer cells as shown by Examples given below.

In the case of `N.N.O=C([O-])C1(C(=O)[O-])CCC1.[Pt+2]` [carboplatin], the “effectiveness of administering carboplatin” value [1] is given as “not effective”.

B1: anti-CAPRIN-1 antibody (d) (antibody, V domains shown)
VH: QSLEESGGDLVKPGASLTLTCTASGFSFSGSYYMSWVRQAPGKGLEWIAYIYIGDGVTAYANWAKGRFTISKASSTTVTLQMTSLTAADTATYFCARGNKLWGPGTLVTVSS
VL: DVVMTQTPASVEAAVGGTVTIKCQASQSISSYLAWYQQKPGQPPKRLIYDASNLDSGVPSRFKGSGSGTDFTITISDLECADAATYYCQCTAVSSATIYGNAFGGGTEVVVK
B1: binds [2].

B2: anti-CAPRIN-1 antibody (j) (antibody, V domains shown)
VH: DAELVKPGASVKISCKASGYTFTDHSIHWVQQKPEQGLEWIGYISPGNGNIKYNEKFKGKATLTADKSSSTAYMQLNSLTSEDSAVYFCKRSLGRGGPYYFDYWGQGTTVTVSS
VL: DIVLTQAAPSLPVTPGESVSISCRSSKSLLHSNGNTYLYWFLQRPGQSPQLLIYRMSNLASGVPDRFSGSGSGTAFTLRISRVEAEDVGVYYCMQHREYPVTFGSGPN
B2: binds [2].

B3: anti-CAPRIN-1 antibody (af) (antibody, V domains shown)
VH: EVQLVESGGGLVQPGGSLRLSCAASGFSLSSHSLGWVRQAPGKGLEWIGDIRSGGSAYYANWAKGRFTISRDNSKNTLYLQMNSLRAEDTAVYYCTRTNGPSDLTNRLDLWGQGTLVTVSS
VL: QVLTQSPSSLSASVGDRVTINCQASQSLYNNENLAWFQQKPGKVPKRLIYGASTLASGVSSRFSGSGSGTEFTLTISSLQCEDFAIYYCLGEFSCGSADCFAFGGGTKVEIK
B3: binds [2].

B4: anti-CAPRIN-1 antibody (ah) (antibody, V domains shown)
VH: B3 VH
VL: EQVLTQSPSSLSASVGDRVTINCQASQSLYNNENLAWFQQKPGKVPKRLIYGASTLASGVSSRFSGSGSGTEFTLTISNLQPEDFAIYYCLGEFSCGSADCFAFGGGTKVEIK
B4: binds [2].

B5: anti-CAPRIN-1 antibody (ai) (antibody, V domains shown)
VH: B3 VH with Y94F
VL: B4 VL with Q2I, I87T
B5: binds [2].

B6: anti-CAPRIN-1 antibody (b) (antibody, V domains shown)
VH: B3 VH with V2Q, Q3S
VL: B3 VL
B6: binds [2].

B7: anti-CAPRIN-1 antibody (aj) (antibody, V domains shown)
VH: B3 VH
VL: B4 VL with Q2I, I87T
B7: binds [2].

B8: anti-CAPRIN-1 antibody (ak) (antibody, V domains shown)
VH: B3 VH with Y94F
VL: B4 VL
B8: binds [2].

B9: anti-CAPRIN-1 antibody (ag) (antibody, V domains shown)
VH: B3 VH with Y94F
VL: B3 VL
B9: binds [2].

B10: anti-CAPRIN-1 antibody (a) (antibody, V domains shown)
VH: AVTLDESGGGLQMSRGGLSLVCKASGFDFSSYQMNWIRQAPGKGLEFVAAINKFGNSTGHGAAVKGRVTISRDNGQSTVRLQLNNLRAEDTAIYFCTKHAYGYCGSGTWCAAGEIDAWGHGTEVIVSS
VL: QAASTQPSSVSANPGETVEITCSGGGSYSYGWFQQKSPGSAPVTVIYYNNKRPSDIPSRFSGSKSGSTGTLTITGVQADDEAVYYCGSGDSTDTAVFGAGTTLTVLG
B10: binds [2].

B11: anti-CAPRIN-1 antibody (e) (antibody, V domains shown)
VH: AVTLDESGGGLQTPGGALSLVCKASGFTFSGYDMLWVRQAPGKGLEWVAGIGSTGGGTDYGAAVKGRATISRDNGQSTVRLQLNNLRAEDTATYYCAKVAGGCNSGYCRDSPGSIDAWGHGTEVIVS
VL: AVTQQPASVSANPGETVKITCSGGGSRNYYGWYQQKSPGSVPVTVIYYDDQRPSNIPSRFSGALSGSTSTLTITGVQADDEAVYFCGSADSNTYEGSFGAGTTLTVL
B11: binds [2].

B12: anti-CAPRIN-1 antibody (o) (antibody, V domains shown)
VH: EVQLHQFGAELVKPGASVKISCKASGYTFTDYNMDWVKQSHGKSLEWIGDINPNYDSTSYNQKFKGKATLTVDKSSSTAYMELRSLTSEDTAVYYCARSRSYDYEGFAYWGQGTLVTVSA
VL: DIQMTQSPASLSASVGETVTITCRASGNIHNYLAWYQQKQGKSPQLLVYNAKTLADGVPSRFSGSGSGTQYSLKINSLQPEDFGSYYCQHFWSTLTFGAGTKLELKR
B12: binds [2].

B13: anti-CAPRIN-1 antibody (i) (antibody, V domains shown)
VH: GAELVRSGASVKMSCKASGYSFTDYNMYWVKQTPGQGLEWIGYIYPGNGGTNYNQKFKGKATLTADTSSSTAYMQISSLTSEDSAVYFCARDYDDGGYAMDYWGQGTTVTVSS
VL: DIQMTQSPASLSASVGETVTITCRASGNIHNYLTWYQQKQGKSPQLLVYNAKTLADGVPSRFSGSGSGTQYSLKINRLQPEDFGSYYCQHFWNIPWTFGGGTKLNSR
B13: binds [2].

B14: (ab): monoclonal antibody against CAPRIN-1 described in WO2013/125630, heavy-chain variable region SEQ ID NO: 114, light-chain variable region SEQ ID NO: 115 (antibody, listed as Mus musculus, V domains shown)
VH: GPELVKPGASVKMSCKASGYTFTSYVMHWVKQKPGQGLEWIGYINPYNDGTKYNEKFKGKATLTSDKSSSTAYMELSSLTSEDSAVYYCARRYYYGSSGGYFDVWAQDHVRT
VL: DVQITQSPSYLAASPGETITINCRASKSISKYLAWYQEKPGKTNKLLIYSGSTLQSGIPSRFSGSGSGTDFTLTISSLEPEDFAMYYCQQHNEYPYTFGGGTKLEIKR
For B14, the “reactivity with cell membrane surfaces of cancer cells (fluorescence intensity versus negative control antibody)” value [3] was “reacted strongly”.

B15: anti-CAPRIN-1 antibody (c) (antibody, V domains shown)
VH: AVTLDESGGGLQTPGGGLSLVCKASGFTFSSFDMGWVRQAPGKGLEFVAQINDAGSRTWYATAVKGRATISRDNGQTTVRLQLNNLRAEDTGTYYCTRGSGYVGAGAIDAWGHGTEVIVS
VL: AALTQPSSVSANPGETVKITCSGGSGYYGWYQQQKSPGSAPVTVIYQNDKRPSDIPSRFSGSGSGSTNTLTITGVQAEDEAVYFCGRYDSTDSGIFGAGTTLTVL
B15: binds [2].

From patent publication US20240325529A1, “MEDICAMENT FOR TREATMENT AND/OR PREVENTION OF CANCER” (TORAY INDUSTRIES, INC., priority 2021, published 2024)
